This passage reports activity and IC50 results from patent US20110251266, “APTAMER FOR NGF AND USE THEREOF” (Shionogi & Co., Ltd., published 2011).

Data set [1] concerns the target T1, beta-NGF (nerve growth factor) (Homo sapiens, UniProt P01138 P01138:122-241). The data set is described as follows: SPR; blocks NGF-TrkA and NGF-P75. To be noted: tags: R&D Systems; chain copies: 2. As for the experimental part:
As directed in BIAcore Company's protocol, Protein A (21181, PIERCE) was immobilized on a CM5 sensor chip. About 1100 RU of human Trk A-Fc fused with the Fc portion of IgG (175-TK, R&D systems) was immobilized thereon. As the analyte, a mixture of NGF (0.1 μM) and each aptamer (0.33 μM) was injected after being allowed to stand for 30 minutes. […] When NGF binds stronger to a receptor than an aptamer, the aptamer may be removed and NGF may bind to the receptor. […] Using the binding amount of NGF and NGF receptor without an aptamer as 100, the binding amount of NGF and NGF receptor added with an aptamer was determined as a correction value. Here, the binding amount is the RU value at the peak top of the sensorgram of BIAcore (RU value immediately after completion of NGF injection). […] A similar experiment was performed for another receptor P75 (p75-Fc; R&D systems).
(SPR reads the build-up and loss of mass on a sensor chip optically.)

Data set [2] concerns the target T1, beta-NGF (nerve growth factor). Briefly: cell_activity; Neuroscreen-1 neurite outgrowth. The note with it: tags: R&D Systems human NGF; chain copies: 2. The protocol:
The neurite outgrowth inhibitory activity of aptamer was evaluated by using Neuroscreen-1 cell, which is a subclone of PC-12 cells. 2500 Cells per well were cultured for one day in an RPMI-1640 medium containing 2.5% horse serum and 1.25% fetal bovine serum in a 96 well flat-bottom plate coated with collagen type IV. A mixed solution of NGF (final concentration 15 ng/ml or 1.1 nM) prereacted in a serum-free RPMI-1640 medium at room temperature or 37° C. for 30 min to 1 hr and an aptamer (final concentration 500-3 nM) was added. Two or three days later, the cytoplasm and nuclei were stained using Cellomics Neurite Outgrowth Kits (manufactured by Thermo Scientific), and neurite length per cell was measured by Cellomics ArrayScan VTI (manufactured by Thermo Scientific). With the neurite length per cell obtained by culturing the cell for 2 days with the addition of NGF alone as inhibitory activity 0%, and that of the cell obtained by NGF free culture as inhibitory activity 100%, the inhibitory activity of the aptamer was calculated from the neurite length per cell obtained by culturing with the addition of NGF and the aptamer in mixture. […] When the inhibitory activity was 0% or below, ‘0%’ is indicated. When it was not less than 100%, ‘100%’ is indicated. The 50% inhibitory concentration was determined from the concentrations at two, above and below points sandwiching the 50% inhibitory activity.

Where only a bound is given, the exact number is not on record here.

T1 sequence (P01138 122-241, one chain of several): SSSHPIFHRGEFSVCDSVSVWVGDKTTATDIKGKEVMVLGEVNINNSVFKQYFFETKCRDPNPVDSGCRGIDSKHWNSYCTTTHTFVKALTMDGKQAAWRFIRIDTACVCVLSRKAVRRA

B1: SEQ69 mosaic aptamer (mixed)
DNA: GGGAGAGGCAAGAATAGGGCCCAGCTGAAAAAAACCTGGACGTACACCGTTCGCCGAGCGGGTGAAGAGAAGAGACATTAGGA
modifications: purines ribo, pyrimidines (C,T) deoxy
Consider B1, for which the activity in data set [1] was no less than 60 % inhibition.

B2: SEQ38 aptamer (ssRNA)
RNA: GGGAGAACUUCGACCAGAAGAGAAUGAAACUCCACAAAGUACAUAAAACAUAUGUGCGCAUACAUGGAUCCUCA
modifications: 2'-F all pyrimidines
As for B2, the activity in data set [1] is no less than 60 % inhibition.

B3: SEQ67 aptamer (ssRNA)
RNA: GGGAGAACUUCGACCAGAAGUCGAUAACGAACAAAACUCCCAAAGGAAUAUAUGUGCGCAUACAUGGAUCCUCA
modifications: 2'-F all pyrimidines
In turn, B3 gave an activity in data set [1] of no less than 60 % inhibition.

B4: SEQ40 aptamer (ssRNA)
RNA: GGGAGAACUUCGACCAGAAGUUUGAAAAAAACCCAGGAAAAUGGAAGACGUAUGUGCGCAUACAUGGAUCCUCA
modifications: 2'-F all pyrimidines
Molecule B4 gave an activity in data set [1] of no less than 60 % inhibition.

B5: SEQ64 aptamer (ssRNA)
RNA: GGGAGAACUUCGACCAGAAGUUUGAAAGAAACCCAAAACAUUAGCACACAUAUGUGCGCAUACAUGGAUCCUCA
modifications: 2'-F all pyrimidines
With B5, the activity in data set [1] is no less than 60 % inhibition.

B6: SEQ42 aptamer (ssRNA)
RNA: GGGAGAACUUCGACCAGAAGUUUGAAAAAAACCCAAAAGAGCAGCAGAGAUAUGUGCGCAUACAUGGAUCCUCA
modifications: 2'-F all pyrimidines
The molecule B6 had an activity in data set [1] of no less than 60 % inhibition.

B7: SEQ73 mosaic aptamer (mixed)
DNA: GGGAGAGGCAAGAATAGGGCACTTGAAAAAAACCCAAAGAAAGAATACTTACCCGGCGCGTGAAGAGAAGAGACATTAGGA
modifications: purines ribo, pyrimidines (C,T) deoxy
Turning to B7, the activity in data set [1] was no less than 60 % inhibition.

B8: SEQ62 aptamer (ssRNA)
RNA: GGGAGAACUUCGACCAGAAGUUUGAAAGAAACCCAAAUUAAAGUGAACAGUAUGUGCGCAUACAUGGAUCCUCA
modifications: 2'-F pyrimidines
Consider B8, for which, in data set [2], half-maximal inhibition (IC50) required 2 nM.

B9: SEQ41 aptamer (ssRNA)
RNA: GGGAGAACUUCGACCAGAAGUUUGAAAGGAACCCAAAGCGAAACAAAACGUAUGUGCGCAUACAUGGAUCCUCA
modifications: 2'-F all pyrimidines
Molecule B9 displayed an activity in data set [1] of no less than 60 % inhibition.

B10: SEQ37 aptamer (ssRNA)
RNA: GGGAGAACUUCGACCAGAAGUUUGAAAGAAACCCAAAGGUGAAACAACAAUAUGUGCGCAUACAUGGAUCCUCA
modifications: 2'-F all pyrimidines
In data set [1], B10 gave an activity of no less than 60 % inhibition.

B11: SEQ62 aptamer (ssRNA)
RNA: GGGAGAACUUCGACCAGAAGUUUGAAAGAAACCCAAAUUAAAGUGAACAGUAUGUGCGCAUACAUGGAUCCUCA
modifications: 2'-F all pyrimidines
B11 came in with an activity in data set [1] of no less than 60 % inhibition.

B12: SEQ85 aptamer (ssRNA)
RNA: GGGAGAACUUCGACCAGAAGCGGAAGCCUGCGUAACCGCAGGAUGAAAACAACCGUAUGUGCGCAUACAUGGAUCCUC
modifications: 2'-F all pyrimidines
For B12, the activity in data set [1] was no less than 60 % inhibition.

B13: SEQ82 aptamer (ssRNA)
RNA: GGGAGAACUUCGACCAGAAGAGGAUGCUUGUUUGGUUACAAGCUGAAAGAAACCUUAUGUGCGCAUACAUGGAUCCUC
modifications: 2'-F all pyrimidines
Regarding B13, the activity in data set [1] is no less than 60 % inhibition.

B14: SEQ75 aptamer (ssRNA)
RNA: GGGAGAACUUCGACCAGAAGUGAAAGAAUCUCCAAAGACAAGAUAAAAACAACCGUAUGUGCGCAUACAUGGAUCCUC
modifications: 2'-F all pyrimidines
In the case of B14, the activity in data set [1] was no less than 60 % inhibition.

B15: SEQ74 mosaic aptamer (mixed)
DNA: GGGAGAGGCAAGAATAGGGCATAGTGTAGACCCCTCTCAAGATACCCCATGAATTGCCCCGTGAAGAGAAGAGACATTAGGA
modifications: purines ribo, pyrimidines (C,T) deoxy
On to B15, for which the activity in data set [1] is no less than 60 % inhibition.

B16: SEQ86 aptamer (ssRNA)
RNA: GGGAGAACUUCGACCAGAAGGAGUAGCCAGUGAACCUGGAAUAUGAAAAAAACCUUAUGUGCGCAUACAUGGAUCCUC
modifications: 2'-F all pyrimidines
In the case of B16, the activity in data set [1] was no less than 60 % inhibition.

B17: SEQ71 mosaic aptamer (mixed)
DNA: GGGAGAGGCAAGAATAGGGCACTTGAAAAAAACCCAAATTTACCGTCTTCAGCGTCGGGTGTGAAGAGAAGAGACATTAGGA
modifications: purines ribo, pyrimidines (C,T) deoxy
B17 gave an activity in data set [1] of no less than 60 % inhibition.

B18: SEQ49 aptamer (ssRNA)
RNA: GGGAGAACUUCGACCAGAAGUGAAAGAAACUCCCAAGACGGUAACGAAAGUAUGUGCGCAUACAUGGAUCCUCA
modifications: 2'-F all pyrimidines
Regarding B18, in data set [1], the activity is no less than 60 % inhibition.

B19: SEQ72 mosaic aptamer (mixed)
DNA: GGGAGAGGCAAGAATAGGGCTGGATGGGCAGTAACCTGAAAAAAACCACCCACCTCTACCGTGAAGAGAAGAGACATTAGGA
modifications: purines ribo, pyrimidines (C,T) deoxy
Turning to B19, the activity in data set [1] is no less than 60 % inhibition.

B20: SEQ83 aptamer (ssRNA)
RNA: GGGAGAACUUCGACCAGAAGUUGAAGCUUGAAAAAAACCCAGGAUUAAACAGACAGUAUGUGCGCAUACAUGGAUCCUC
modifications: 2'-F all pyrimidines
In data set [1], B20 showed an activity of no less than 60 % inhibition.

B21: SEQ54 aptamer (ssRNA)
RNA: GGGAGAACUUCGACCAGAAGUCGAAAGUGAAAGAAACUCCAACGAAAGCAUAUGUGCGCAUACAUGGAUCCUCA
modifications: 2'-F all pyrimidines
With B21, the activity in data set [1] was no less than 60 % inhibition.

B22: SEQ68 aptamer (ssRNA)
RNA: GGGAGAACUUCGACCAGAAGUCGAGAGCGAAAGAAACUCCCAAAACACAGUAUGUGCGCAUACAUGGAUCCUCA
modifications: 2'-F all pyrimidines
In data set [1], B22 gave an activity of no less than 60 % inhibition.

B23: SEQ57 aptamer (ssRNA)
RNA: GGGAGAACUUCGACCAGAAGUUUGAAAAAAACCCAAACACCGAAGCACAAAUAUGUGCGCAUACAUGGAUCCUCA
modifications: 2'-F all pyrimidines
For B23, in data set [1], the activity was no less than 60 % inhibition.

B24: SEQ51 aptamer (ssRNA)
RNA: GGGAGAACUUCGACCAGAAGUUUGAAAGAAACCCAAAAAAACAACAUAUGAACUAUGUGCGCAUACAUGGAUCCUCA
modifications: 2'-F all pyrimidines
In turn, B24 yielded an activity in data set [1] of no less than 60 % inhibition.

B25: SEQ76 aptamer (ssRNA)
RNA: GGGAGAACUUCGACCAGAAGGAUAAACGCAUGUAUUUGCAGUAUUAAAAAUGCCUUAUGUGCGCAUACAUGGAUCCUC
modifications: 2'-F all pyrimidines
With B25, the activity in data set [1] is no less than 60 % inhibition.

B26: SEQ39 aptamer (ssRNA)
RNA: GGGAGAACUUCGACCAGAAGUGUGAAAAGAACCCAAAUAAAACAACAAUGUAUGUGCGCAUACAUGGAUCCUCA
modifications: 2'-F all pyrimidines
Molecule B26 registered an activity in data set [1] of no less than 60 % inhibition.

B27: SEQ58 aptamer (ssRNA)
RNA: GGGAGAACUUCGACCAGAAGUUUGAAAAGAACCCAAAUACAGAAUAAAUGUAUGUGCGCAUACAUGGAUCCUCA
modifications: 2'-F all pyrimidines
B27 gave an activity in data set [1] of no less than 60 % inhibition.

B28: SEQ79 aptamer (ssRNA)
RNA: GGGAGAACUUCGACCAGAAGGAUAGCCAUGUGGAGGUGAAGACUGAAAUAAACCAUAUGUGCGCAUACAUGGAUCCUC
modifications: 2'-F all pyrimidines
B28 registered an activity in data set [1] of no less than 60 % inhibition.

B29: SEQ70 mosaic aptamer (mixed)
DNA: GGGAGAGGCAAGAATAGGGCTGGAAATAGAACCGCGCTGTCTTCATTAAGCCGCCCAACGGTGAAGAGAAGAGACATTAGGA
modifications: purines ribo, pyrimidines (C,T) deoxy
On to B29, for which, in data set [1], the activity is no less than 60 % inhibition.

B30: SEQ77 aptamer (ssRNA)
RNA: GGGAGAACUUCGACCAGAAGUGAAAAAAUCUCCAGUUGCAAGACGAAACAAACCUUAUGUGCGCAUACAUGGAUCCUC
modifications: 2'-F all pyrimidines
As for B30, the activity in data set [1] is no less than 60 % inhibition.
Consider GGGAAGCCUGUGGAGCUGCAGGAUGAAAAAAACCCAAA (ssRNA, 2'-F all pyrimidines) [SEQ35 aptamer], for which, in data set [1], the activity was no less than 60 % inhibition.

B31: SEQ78 aptamer (ssRNA)
RNA: GGGAGAACUUCGACCAGAAGUGUGUAUUGUUCAGGGUGUGCCCAGCCUAUAACCAUAUGUGCGCAUACAUGGAUCCUC
modifications: 2'-F all pyrimidines
For B31, in data set [1], the activity was no less than 60 % inhibition.

B32: SEQ80 aptamer (ssRNA)
RNA: GGGAGAACUUCGACCAGAAGUGAAAACAACCUCCCAAUAAUGAUCACAGAAAUCCUAUGUGCGCAUACAUGGAUCCUC
modifications: 2'-F all pyrimidines
In data set [1], B32 displayed an activity of no less than 60 % inhibition.

B33: SEQ81 aptamer (ssRNA)
RNA: GGGAGAACUUCGACCAGAAGGAGAUGACUGUGUAACCACAGUAUGAAAUAAACUCUAUGUGCGCAUACAUGGAUCCUC
modifications: 2'-F all pyrimidines
For the molecule B33, the activity in data set [1] is no less than 60 % inhibition.

B34: SEQ52 aptamer (ssRNA)
RNA: GGGAGAACUUCGACCAGAAGUUUGAAAGAAACCCAAAUAUACAAAACACUAUGUGCGCAUACAUGGAUCCUCA
modifications: 2'-F all pyrimidines
With B34, the activity in data set [1] is no less than 60 % inhibition.
